Assay results as given in paper PMC6934155.

Assays:
[1] = biological target: Fatty acid synthase (FAS) of S. pombe, co-purified with Rad3/Rad26 (S. pombe) (UniProt Q9UUG0)
[2] = biological target: Rad3/Rad26 (ATR/ATRIP homolog in Schizosaccharomyces pombe) with TAPm-Rad3 (S. pombe) (UniProt Q02099); experiment: co-IP

Row | Substance | specific (catalytic) activity of co-purified FAS relative to apo-state FAS [1] [%] | fold of co-precipitation compared with control (CPT-treated cells) [2] [times] | fold of co-precipitation compared with control (MMS-treated cells) [2] [times]
1 | Rad3/Rad26 (ATR/ATRIP homolog in Schizosaccharomyces pombe) with TAPm-Rad3, Q02099 1-2386; P36632 1-614 | 23.3 | – | –
2 | Apo-state fatty acid synthase (FAS) of S. pombe with Fas1-FLAG, Q9UUG0 1-2073; Q10289 1-1842 | – | 1.79 | 2.01
